# Assay results taken from PMC2133053 (The Journal of Cell Biology, 1998).
# Molecular target: GST–INAD fusion protein (full-length INAD in pGEX5.1) (Drosophila, UniProt Q24008 1-674)
# Assay: pull-down
binder,measurement,value
"PKC^D (last three residues changed to aspartic acid), in vitro translated, 35S-labelled (enzyme, Drosophila, UniProt P13677 1-700, looked up, [35S]methionine label) MAAAAVATPGATVLPPSVPSAAPGAKAPAAGAGKGPGNLLEITGEANIVNYMKNRLRKGAMKRKGLEMVNGHRFGVRFFKNPTYCGHCKDFIWGFGKQGFQCEECRFNIHQKCCKFVVFKCPGKDTDFDADCAKVKHGWISTTYTTPTFCDECGLLLHGVAHQGVKCENCNLNVHHACQETVPPMCGADISEVRGKLLLYVELKGNNLKVDIKEAANLIPMDTNGFSDPYIAVQMHPDRSGRTKKKTKTIQKNLNPVFNETFTFELQPQDRDKRLLIEVWDWDRTSRNDFMGSFSFSLEELQKEPVDGWYKFLSQVEGEHYNIPCVDAFNDIARLRDEVRHDRRPNEKRRMDNKDMPHNMSKRDMIRAADFNFVKVIGKGSFGKVLLAERRGTDELYAVKVLRKDVIIQTDDMELPMNEKKILALSGRPPFLVSMHSCFQTMDRLFFVMEYCKGGDLMYHMQQYGRFKESVAIFYAVEVAIALFFLHERDIIYRDLKLDNILLDGEGHVKLVDFGLSKEGVTERQTTRTFCGTPNYMAPEIVSYDPYSIAADWWSFGVLLFEFMAGQAPFEGDDETTVFRNIKDKKAVFPKHFSVEAMDIITSFLTKKPNNRLGAGRYARQEITTHPFFRNVDWDKAEACEMEPPIKPMIKHRKDISNFDDAFTKEKTDLTPTDKLFMMNLDQNDFIGFSFMNPEFIDDD",fold reduction of binding relative to wild-type PKC,~8 fold
